The record followed here is publication PMC4783047, “Determinants of Amyloid Formation for the Yeast Termination Factor Nab3” (PLoS ONE, 2016).

In data set [1] the target is thioflavin T. As to the kind of experiment: Thioflavin T fluorescence. The following applies: value read at the wild-type emission peak, about 480 nm; the mutant trace lies on the zero line over the whole 460-595 nm spectrum; parent: est. 66; read off a plot.
Data set [2] deals with the molecule itself. As to the kind of experiment: transmission electron microscopy of filaments (negative stain); purified, concentrated protein left undisturbed (4°C, or 4°C or 22°C for the LCD proteins) for days to weeks; 1% phosphotungstic acid stain; self-assembly into filaments.

Take “Nab3 low complexity domain, C-terminal 134 amino acids of Nab3 (Nab3^134) (from UniProt P38996) Q2E; Q7E; Q9E; Q15E; Q30E; Q32E; Q34E; Q39E; Q41E; Q47E; Q50E; Q52E; Q55E; Q57E; Q59E; Q82E; Q96E; Q101E; Q105E; Q107E; Q109E; Q111E; Q113E; Q115E”: the response in data set [1] stood at 0.

B1: Nab3^134 with the last 18 amino acids of Nab3 deleted (Nab3^134Δα) (domain or fragment, S. cerevisiae, UniProt P38996 669-784, looked up)
chain: SQTPMDQQQLLSAIQNLPPNVVSNLLSMAQQQQQQPHAQQQLVGLIQSMQGQAPQQQQQQLGGYSSMNSSSPPPMSTNYNGQNISAKPSAPPMSHQPPPPQQQQQQQQQQQQQQQQ
notes: Same vector as m1, so an S-tag is probably left after thrombin cleavage
For B1, in data set [2], the binding result is recorded as “binds”.

B2: Pcf11 low complexity domain (residues 228-287) (domain or fragment, yeast, UniProt P39081 228-287, looked up)
chain: MRYHELQQQQQQQQQQQQQQQQQQQQYHETKDMVGSYTQNSNSAIPLFGNNSDTTNQQNS
notes: Pcf11, yeast transcription termination factor, codon 228 to codon 287 (core prion-like domain as defined by Alberti et al.); Inserted between the BglII and XhoI sites of pET32a; also called Pcf11 LCD; Pcf11's LCD; source: E. coli, pET32-Pcf11-LCD (synthetic gene), thioredoxin fusion, purified (HisTrap, thrombin cleavage, second HisTrap)
Take B2: in data set [2], the binding result is given as “binds”.

B3: Full-length Nab3 (natural protein, S. cerevisiae, UniProt P38996 1-802, looked up)
chain: MSDENHNSDVQDIPSPELSVDSNSNENELMNNSSADDGIEFDAPEEEREAEREEENEEQHELEDVNDEEEEDKEEKGEENGEVINTEEEEEEEHQQKGGNDDDDDDNEEEEEEEEDDDDDDDDDDDDEEEEEEEEEEGNDNSSVGSDSAAEDGEDEEDKKDKTKDKEVELRRETLEKEQKDVDEAIKKITREENDNTHFPTNMENVNYDLLQKQVKYIMDSNMLNLPQFQHLPQEEKMSAILAMLNSNSDTALSVPPHDSTISTTASASATSGARSNDQRKPPLSDAQRRMRFPRADLSKPITEEEHDRYAAYLHGENKITEMHNIPPKSRLFIGNLPLKNVSKEDLFRIFSPYGHIMQINIKNAFGFIQFDNPQSVRDAIECESQEMNFGKKLILEVSSSNARPQFDHGDHGTNSSSTFISSAKRPFQTESGDMYNDDNGAGYKKSRRHTVSCNIFVKRTADRTYAIEVFNRFRDGTGLETDMIFLKPRMELGKLINDAAYNGVWGVVLVNKTHNVDVQTFYKGSQGETKFDEYISISADDAVAIFNNIKNNRNNSRPTDYRAMSHQQNIYGAPPLPVPNGPAVGPPPQTNYYQGYSMPPPQQQQQQPYGNYGMPPPSHDQGYGSQPPIPMNQSYGRYQTSIPPPPPQQQIPQGYGRYQAGPPPQPPSQTPMDQQQLLSAIQNLPPNVVSNLLSMAQQQQQQPHAQQQLVGLIQSMQGQAPQQQQQQLGGYSSMNSSSPPPMSTNYNGQNISAKPSAPPMSHQPPPPQQQQQQQQQQQQQQQQPAGNNVQSLLDSLAKLQK
notes: Nab3, S. cerevisiae transcription termination factor, 802 amino acids; also called full-length wildtype Nab3; the entire 802-residue protein
For the molecule B3, the binding result in data set [2] is listed as “binds”.

B4: Nab3 low complexity domain, C-terminal 134 amino acids of Nab3 (Nab3^134) (domain or fragment, S. cerevisiae, UniProt P38996 669-802, looked up)
chain: SQTPMDQQQLLSAIQNLPPNVVSNLLSMAQQQQQQPHAQQQLVGLIQSMQGQAPQQQQQQLGGYSSMNSSSPPPMSTNYNGQNISAKPSAPPMSHQPPPPQQQQQQQQQQQQQQQQPAGNNVQSLLDSLAKLQK
notes: Inserted between the BglII and XhoI sites of pET32a; also called Nab3 LCD; wildtype LCD
On to B4, for which the binding result in data set [2] is recorded as “binds”.
